Measured values taken from article PMC7112428 (International Journal of Biological Macromolecules, 2018).

Molecular target: the molecule itself
Experiment: SEC

B1: recombinant porcine aminopeptidase N ectodomain (residues 63-963) (domain or fragment, UniProt P15145 63-963, looked up)
chain: QSKPWNRYRLPTTLLPDSYNVTLRPYLTPNADGLYIFKGKSIVRLLCQEPTDVIIIHSKKLNYTTQGHMVVLRGVGDSQVPEIDRTELVELTEYLVVHLKGSLQPGHMYEMESEFQGELADDLAGFYRSEYMEGNVKKVLATTQMQSTDARKSFPCFDEPAMKATFNITLIHPNNLTALSNMPPKGSSTPLAEDPNWSVTEFETTPVMSTYLLAYIVSEFQSVNETAQNGVLIRIWARPNAIAEGHGMYALNVTGPILNFFANHYNTSYPLPKSDQIALPDFNAGAMENWGLVTYRENALLFDPQSSSISNKERVVTVIAHELAHQWFGNLVTLAWWNDLWLNEGFASYVEYLGADHAEPTWNLKDLIVPGDVYRVMAVDALASSHPLTTPAEEVNTPAQISEMFDSISYSKGASVIRMLSNFLTEDLFKEGLASYLHAFAYQNTTYLDLWEHLQKAVDAQTSIRLPDTVRAIMDRWTLQMGFPVITVDTKTGNISQKHFLLDSESNVTRSSAFDYLWIVPISSIKNGVMQDHYWLRDVSQAQNDLFKTASDDWVLLNVNVTGYFQVNYDEDNWRMIQHQLQTNLSVIPVINRAQVIYDSFNLATAHMVPVTLALDNTLFLNGEKEYMPWQAALSSLSYFSLMFDRSEVYGPMKKYLRKQVEPLFQHFETLTKNWTERPENLMDQYSEINAISTACSNGLPQCENLAKTLFDQWMSDPENNPIHPNLRSTIYCNAIAQGGQDQWDFAWGQLQQAQLVNEADKLRSALACSNEVWLLNRYLGYTLNPDLIRKQDATSTINSIASNVIGQPLAWDFVQSNWKKLFQDYGGGSFSFSNLIQGVTRRFSSEFELQQLEQFKKNNMDVGFGSGTRALEQALEKTKANIKWVKENKEVVLNWFIEHS
Q: B1 was tested. Which “stoichiometry N” value did it give?
A: 2
